The target of test [1] is T1, p75ICD (residues 290–418) (human, UniProt P08138 290-418).
T1 chain: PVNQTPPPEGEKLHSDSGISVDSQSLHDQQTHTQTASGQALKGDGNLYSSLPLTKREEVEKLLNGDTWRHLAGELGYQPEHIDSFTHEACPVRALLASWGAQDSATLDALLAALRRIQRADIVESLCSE
In words: SEC; S200-Superdex gel filtration, 4 °C, PBS pH 8.0, 0.7 ml/min; p75ICD purified with or without DTT (or with iodoacetamide in the lysis buffer). The following applies: both partners purified. For orientation: In gel filtration, larger molecules generally elute earlier.

The target in test [2] is T1, p75ICD (residues 290–418). In words: NMR titration; TROSY spectra of 15N-labelled p75ICD at different concentrations (10, 100, 500 µM) with DTT; 25 °C, PBS pH 8.0, 100 mM NaCl; monomer to dimer. The following applies: both partners purified.
The target in the next test is T2, Flag-tagged human NgR (human, UniProt Q9BZR6 27-447).
T2 construct: Nogo-66 receptor (NgR), human; Printed both as Flag-hNgR and as NgR-Flag; also called Flag-hNgR; NgR-Flag; source: HEK293, transfected, in lysate
T2 sequence (looked up): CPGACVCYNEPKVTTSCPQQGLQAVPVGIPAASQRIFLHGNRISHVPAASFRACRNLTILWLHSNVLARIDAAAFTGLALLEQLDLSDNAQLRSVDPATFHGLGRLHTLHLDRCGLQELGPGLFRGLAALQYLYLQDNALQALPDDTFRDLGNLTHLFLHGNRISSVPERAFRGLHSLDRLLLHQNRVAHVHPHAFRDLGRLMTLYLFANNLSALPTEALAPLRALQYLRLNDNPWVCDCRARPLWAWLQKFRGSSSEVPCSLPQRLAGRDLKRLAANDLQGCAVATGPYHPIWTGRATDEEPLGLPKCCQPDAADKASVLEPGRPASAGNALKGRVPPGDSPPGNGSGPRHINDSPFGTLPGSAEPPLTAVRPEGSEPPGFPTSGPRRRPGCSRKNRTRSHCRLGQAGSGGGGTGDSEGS
Put plainly: co-IP; HEK293 co-transfected with wild-type or mutant p75 and Flag-tagged NgR; p75 co-immunoprecipitated with NgR; blots quantified, wild type = 100%. The settings on record: partners not purified.

Changes are numbered by the printed parent chain. Names may count otherwise.

B1: p75ICD (residues 290–418) (domain or fragment)
chain: T1 chain
modifications: Methods print 'human p75ICD', but all residue numbers (L360, E363, Q367, D372, H376, E377, C379, W388, R404) and the mapped structure 1NGR fit the rat precursor; human P08138 is offset by +2 in this …
Turning to B1, the “stoichiometry N” value in test [1] was found to be 2. In test [2], the dissociation constant (Kd) was ~100 µM.

B2: p75 D372R (full-length) (receptor, UniProt P07174 30-425, looked up)
chain: KETCSTGLYTHSGECCKACNLGEGVAQPCGANQTVCEPCLDNVTFSDVVSATEPCKPCTECLGLQSMSAPCVEADDAVCRCAYGYYQDEETGHCEACSVCEVGSGLVFSCQDKQNTVCEECPEGTYSDEANHVDPCLPCTVCEDTERQLRECTPWADAECEEIPGRWIPRSTPPEGSDSTAPSTQEPEVPPEQDLVPSTVADMVTTVMGSSQPVVTRGTTDNLIPVYCSILAAVVVGLVAYIAFKRWNSCKQNKQGANSRPVNQTPPPEGEKLHSDSGISVDSQSLHDQQTHTQTASGQALKGDGNLYSSLPLTKREEVEKLLNGDTWRHLAGELGYQPEHIRSFTHEACPVRALLASWGAQDSATLDALLAALRRIQRADIVESLCSESTATSPV
notes: p75 neurotrophin receptor; source: HEK293, transfected, in lysate
Regarding B2, the “percent co-immunoprecipitated with NgR (WT, 100%)” value in the test with Flag-tagged human NgR was 61.8%.

B3: p75-C257A (full-length) (receptor, UniProt P07174 30-425, looked up)
chain: B2 chain with C228A, R343D
notes: p75 neurotrophin receptor; also called p75 TM domain mutant; source: HEK293, transfected, in lysate
Consider B3, for which, in the test with Flag-tagged human NgR, the “percent co-immunoprecipitated with NgR (WT, 100%)” value worked out at 17.7%.

B4: p75 E377R (full-length) (receptor, UniProt P07174 30-425, looked up)
chain: B2 chain with R343D, E348R
notes: as for B2
As to B4, the “percent co-immunoprecipitated with NgR (WT, 100%)” value in the test with Flag-tagged human NgR was 27.4%.

B5: p75 H376E (full-length) (receptor, UniProt P07174 30-425, looked up)
chain: B2 chain with R343D, H347E
notes: as for B2
Take B5: in the test with Flag-tagged human NgR, the “percent co-immunoprecipitated with NgR (WT, 100%)” value is 125%.

What is called stoichiometry N is a count of units in the complex or per binding partner. In general, Kd refers to the concentration at which binding is half-saturated.
